This note sets out measurements from IntAct's records for PubMed 21282611.

B1: WD-40 repeat-containing protein MSI4 (Arabidopsis thaliana (Mouse-ear cress)), O22607 (parent)
chain: MESDEAAAVSPQATTPSGGTGASGPKKRGRKPKTKEDSQTPSSQQQSDVKMKESGKKTQQSPSVDEKYSQWKGLVPILYDWLANHNLVWPSLSCRWGPQLEQATYKNRQRLYLSEQTDGSVPNTLVIANCEVVKPRVAAAEHISQFNEEARSPFVKKYKTIIHPGEVNRIRELPQNSKIVATHTDSPDVLIWDVETQPNRHAVLGAANSRPDLILTGHQDNAEFALAMCPTEPFVLSGGKDKSVVLWSIQDHITTIGTDSKSSGSIIKQTGEGTDKNESPTVGPRGVYHGHEDTVEDVAFSPTSAQEFCSVGDDSCLILWDARTGTNPVTKVEKAHDADLHCVDWNPHDDNLILTGSADNTVRLFDRRKLTANGVGSPIYKFEGHKAAVLCVQWSPDKSSVFGSSAEDGLLNIWDYDRVSKKSDRAAKSPAGLFFQHAGHRDKVVDFHWNASDPWTIVSVSDDCETTGGGGTLQIWRMSDLIYRPEEEVVAELEKFKSHVMTCASKP
partner: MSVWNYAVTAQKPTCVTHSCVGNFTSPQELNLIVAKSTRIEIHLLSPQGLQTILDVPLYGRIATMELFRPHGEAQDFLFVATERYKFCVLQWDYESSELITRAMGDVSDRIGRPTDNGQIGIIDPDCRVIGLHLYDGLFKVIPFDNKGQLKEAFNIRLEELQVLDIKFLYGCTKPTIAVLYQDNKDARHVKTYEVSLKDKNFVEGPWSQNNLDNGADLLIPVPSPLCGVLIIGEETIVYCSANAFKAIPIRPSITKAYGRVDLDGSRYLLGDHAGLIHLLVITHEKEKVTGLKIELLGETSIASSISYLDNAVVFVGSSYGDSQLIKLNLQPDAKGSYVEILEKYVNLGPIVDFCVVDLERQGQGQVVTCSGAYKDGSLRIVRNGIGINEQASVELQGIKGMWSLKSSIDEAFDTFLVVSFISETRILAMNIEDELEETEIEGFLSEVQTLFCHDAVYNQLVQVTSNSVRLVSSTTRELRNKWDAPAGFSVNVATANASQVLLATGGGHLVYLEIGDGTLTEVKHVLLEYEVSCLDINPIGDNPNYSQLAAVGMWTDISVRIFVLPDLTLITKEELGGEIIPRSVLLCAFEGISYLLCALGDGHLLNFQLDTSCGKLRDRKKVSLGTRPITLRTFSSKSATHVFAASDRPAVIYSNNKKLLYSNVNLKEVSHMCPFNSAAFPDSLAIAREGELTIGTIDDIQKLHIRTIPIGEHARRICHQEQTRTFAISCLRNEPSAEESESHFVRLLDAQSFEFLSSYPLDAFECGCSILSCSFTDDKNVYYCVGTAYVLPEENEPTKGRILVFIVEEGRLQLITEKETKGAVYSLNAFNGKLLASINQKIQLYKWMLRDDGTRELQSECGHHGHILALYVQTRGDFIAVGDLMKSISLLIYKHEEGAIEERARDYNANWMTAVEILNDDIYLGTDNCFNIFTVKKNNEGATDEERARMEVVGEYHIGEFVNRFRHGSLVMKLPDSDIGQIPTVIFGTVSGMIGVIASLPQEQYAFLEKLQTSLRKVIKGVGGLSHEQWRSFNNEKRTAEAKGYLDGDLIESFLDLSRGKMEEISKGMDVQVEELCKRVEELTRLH
B2: WD-40 repeat-containing protein MSI4 (Arabidopsis thaliana (Mouse-ear cress)), O22607 (parent)
chain: B1 chain
partner: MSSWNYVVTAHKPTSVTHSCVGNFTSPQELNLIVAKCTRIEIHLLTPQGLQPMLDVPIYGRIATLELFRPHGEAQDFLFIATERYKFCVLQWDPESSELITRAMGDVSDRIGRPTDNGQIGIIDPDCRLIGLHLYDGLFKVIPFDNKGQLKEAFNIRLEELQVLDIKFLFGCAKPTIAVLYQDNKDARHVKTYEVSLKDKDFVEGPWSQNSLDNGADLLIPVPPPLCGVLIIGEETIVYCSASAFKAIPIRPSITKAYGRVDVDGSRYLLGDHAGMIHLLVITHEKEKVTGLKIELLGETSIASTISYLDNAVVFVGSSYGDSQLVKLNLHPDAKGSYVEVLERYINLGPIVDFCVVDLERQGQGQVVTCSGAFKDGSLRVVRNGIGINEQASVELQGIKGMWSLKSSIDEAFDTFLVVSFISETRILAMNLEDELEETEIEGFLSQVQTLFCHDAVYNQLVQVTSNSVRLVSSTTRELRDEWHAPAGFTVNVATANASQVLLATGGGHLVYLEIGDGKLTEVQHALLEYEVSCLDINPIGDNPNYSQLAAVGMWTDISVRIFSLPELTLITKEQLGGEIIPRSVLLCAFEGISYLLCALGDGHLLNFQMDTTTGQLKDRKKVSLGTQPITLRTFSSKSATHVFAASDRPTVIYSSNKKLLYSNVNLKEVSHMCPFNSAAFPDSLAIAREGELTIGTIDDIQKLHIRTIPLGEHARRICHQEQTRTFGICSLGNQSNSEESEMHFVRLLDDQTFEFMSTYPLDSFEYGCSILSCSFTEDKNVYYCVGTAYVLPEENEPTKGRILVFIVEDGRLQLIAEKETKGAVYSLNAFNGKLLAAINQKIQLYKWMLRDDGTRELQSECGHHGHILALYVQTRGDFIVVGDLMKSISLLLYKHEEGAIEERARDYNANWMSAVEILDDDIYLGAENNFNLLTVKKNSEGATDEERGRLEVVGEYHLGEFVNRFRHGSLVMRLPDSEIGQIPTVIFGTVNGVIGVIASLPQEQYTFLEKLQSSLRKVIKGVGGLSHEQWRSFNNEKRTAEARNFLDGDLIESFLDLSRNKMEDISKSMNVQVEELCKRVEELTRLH

Variants of B1 are the subject of the first assay. The conditions noted are these: with ddb1b_arath DDB1B.
Regarding R323H, the “effect of a mutation on the interaction” value was “decreasing interaction strength”.

The variants in the next assay derive from B2. The following applies: with ddb1a_arath DDB1A.
For R323H, the “effect of a mutation on the interaction” value is recorded as “decreasing interaction strength”.
